Patent publication US20160272683A1 (Novo Nordisk, published 2016)
Numbered stars: 1 amine (or outer) side, 2 acyl side, 3 side chain; on linkers, the order of the positions; unused ones are H or OH. Side chains are listed from the residue outwards. Ends that are not written are not given here. * marks the point of attachment. C20 diacid = O=C(O)CCCCCCCCCCCCCCCCCCC(=O)*; C18 diacid = O=C(O)CCCCCCCCCCCCCCCCC(=O)*; C16 diacid = O=C(O)CCCCCCCCCCCCCCC(=O)*; γGlu = O=C(O)[C@H](CCC(=O)[*:2])N[*:1]; C14 diacid = O=C(O)CCCCCCCCCCCCC(=O)*; AEEA = NCCOCCOCC(=O)O

T1: human amylin 3(a) receptor (human calcitonin receptor co-expressed with RAMP-3) (human, UniProt P30988 25-474; O60896 24-148, limits assumed)
T1 sequence (looked up) 1: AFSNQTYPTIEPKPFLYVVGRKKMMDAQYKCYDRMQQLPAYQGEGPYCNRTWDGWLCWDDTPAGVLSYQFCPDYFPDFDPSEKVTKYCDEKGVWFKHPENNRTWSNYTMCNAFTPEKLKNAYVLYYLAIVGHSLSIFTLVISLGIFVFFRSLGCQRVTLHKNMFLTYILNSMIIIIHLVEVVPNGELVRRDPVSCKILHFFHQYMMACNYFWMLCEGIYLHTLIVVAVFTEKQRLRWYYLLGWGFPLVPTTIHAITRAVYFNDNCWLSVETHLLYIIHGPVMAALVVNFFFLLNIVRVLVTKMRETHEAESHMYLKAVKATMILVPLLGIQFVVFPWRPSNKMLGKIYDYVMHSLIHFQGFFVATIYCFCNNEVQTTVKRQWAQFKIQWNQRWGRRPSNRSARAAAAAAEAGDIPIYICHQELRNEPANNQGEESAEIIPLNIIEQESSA
T1 sequence (looked up) 2: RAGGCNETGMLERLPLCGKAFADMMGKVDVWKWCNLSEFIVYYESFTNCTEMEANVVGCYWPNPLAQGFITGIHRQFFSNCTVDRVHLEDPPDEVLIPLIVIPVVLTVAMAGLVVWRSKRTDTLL

T2: human calcitonin receptor (human, UniProt P30988 25-474)
T2 sequence (looked up): T1 sequence (looked up) 1

B1: [des1, 19K(C20 diacid-gGlu), 30S, 31G]mimylin (peptide)
peptide: ASELSTAALGRLSAELHK([γGlu-C20 diacid])LATLPRTETGSGSP-NH2
modifications: N-terminus assumed
SMILES: CC(C)C[C@H](NC(=O)[C@H](C)NC(=O)[C@H](C)NC(=O)[C@@H](NC(=O)[C@H](CO)NC(=O)[C@H](CC(C)C)NC(=O)[C@H](CCC(=O)O)NC(=O)[C@H](CO)NC(=O)[C@H](C)N)[C@@H](C)O)C(=O)NCC(=O)N[C@@H](CCCNC(=N)N)C(=O)N[C@@H](CC(C)C)C(=O)N[C@@H](CO)C(=O)N[C@@H](C)C(=O)N[C@@H](CCC(=O)O)C(=O)N[C@@H](CC(C)C)C(=O)N[C@@H](Cc1c[nH]cn1)C(=O)N[C@@H](CCCCNC(=O)CC[C@H](NC(=O)CCCCCCCCCCCCCCCCCCC(=O)O)C(=O)O)C(=O)N[C@@H](CC(C)C)C(=O)N[C@@H](C)C(=O)N[C@H](C(=O)N[C@@H](CC(C)C)C(=O)N1CCC[C@H]1C(=O)N[C@@H](CCCNC(=N)N)C(=O)N[C@H](C(=O)N[C@@H](CCC(=O)O)C(=O)N[C@H](C(=O)NCC(=O)N[C@@H](CO)C(=O)NCC(=O)N[C@@H](CO)C(=O)N1CCC[C@H]1C(N)=O)[C@@H](C)O)[C@@H](C)O)[C@@H](C)O
B2: [des1, 4K(C20 diacid-gGlu), 30S, 31G]mimylin (peptide)
peptide: ASK([γGlu-C20 diacid])LSTAALGRLSAELHELATLPRTETGSGSP-NH2
modifications: N-terminus assumed
SMILES: CC(C)C[C@H](NC(=O)[C@H](C)NC(=O)[C@H](C)NC(=O)[C@@H](NC(=O)[C@H](CO)NC(=O)[C@H](CC(C)C)NC(=O)[C@H](CCCCNC(=O)CC[C@H](NC(=O)CCCCCCCCCCCCCCCCCCC(=O)O)C(=O)O)NC(=O)[C@H](CO)NC(=O)[C@H](C)N)[C@@H](C)O)C(=O)NCC(=O)N[C@@H](CCCNC(=N)N)C(=O)N[C@@H](CC(C)C)C(=O)N[C@@H](CO)C(=O)N[C@@H](C)C(=O)N[C@@H](CCC(=O)O)C(=O)N[C@@H](CC(C)C)C(=O)N[C@@H](Cc1c[nH]cn1)C(=O)N[C@@H](CCC(=O)O)C(=O)N[C@@H](CC(C)C)C(=O)N[C@@H](C)C(=O)N[C@H](C(=O)N[C@@H](CC(C)C)C(=O)N1CCC[C@H]1C(=O)N[C@@H](CCCNC(=N)N)C(=O)N[C@H](C(=O)N[C@@H](CCC(=O)O)C(=O)N[C@H](C(=O)NCC(=O)N[C@@H](CO)C(=O)NCC(=O)N[C@@H](CO)C(=O)N1CCC[C@H]1C(N)=O)[C@@H](C)O)[C@@H](C)O)[C@@H](C)O
B3: [N-terminal(C20 diacid-gGlu), 1A, 23Y, 30S, 31G]mimylin (peptide)
peptide: {C20 diacid-γGlu}-AASELSTAALGRLSAELHELATYPRTETGSGSP-NH2
SMILES: CC(C)C[C@H](NC(=O)[C@H](C)NC(=O)[C@H](C)NC(=O)[C@@H](NC(=O)[C@H](CO)NC(=O)[C@H](CC(C)C)NC(=O)[C@H](CCC(=O)O)NC(=O)[C@H](CO)NC(=O)[C@H](C)NC(=O)[C@H](C)NC(=O)CC[C@H](NC(=O)CCCCCCCCCCCCCCCCCCC(=O)O)C(=O)O)[C@@H](C)O)C(=O)NCC(=O)N[C@@H](CCCNC(=N)N)C(=O)N[C@@H](CC(C)C)C(=O)N[C@@H](CO)C(=O)N[C@@H](C)C(=O)N[C@@H](CCC(=O)O)C(=O)N[C@@H](CC(C)C)C(=O)N[C@@H](Cc1c[nH]cn1)C(=O)N[C@@H](CCC(=O)O)C(=O)N[C@@H](CC(C)C)C(=O)N[C@@H](C)C(=O)N[C@H](C(=O)N[C@@H](Cc1ccc(O)cc1)C(=O)N1CCC[C@H]1C(=O)N[C@@H](CCCNC(=N)N)C(=O)N[C@H](C(=O)N[C@@H](CCC(=O)O)C(=O)N[C@H](C(=O)NCC(=O)N[C@@H](CO)C(=O)NCC(=O)N[C@@H](CO)C(=O)N1CCC[C@H]1C(N)=O)[C@@H](C)O)[C@@H](C)O)[C@@H](C)O
B4: [N-terminal(C20 diacid-gGlu), des1, 23Y, 30S, 31G]mimylin (peptide)
peptide: {C20 diacid-γGlu}-ASELSTAALGRLSAELHELATYPRTETGSGSP-NH2
SMILES: CC(C)C[C@H](NC(=O)[C@H](C)NC(=O)[C@H](C)NC(=O)[C@@H](NC(=O)[C@H](CO)NC(=O)[C@H](CC(C)C)NC(=O)[C@H](CCC(=O)O)NC(=O)[C@H](CO)NC(=O)[C@H](C)NC(=O)CC[C@H](NC(=O)CCCCCCCCCCCCCCCCCCC(=O)O)C(=O)O)[C@@H](C)O)C(=O)NCC(=O)N[C@@H](CCCNC(=N)N)C(=O)N[C@@H](CC(C)C)C(=O)N[C@@H](CO)C(=O)N[C@@H](C)C(=O)N[C@@H](CCC(=O)O)C(=O)N[C@@H](CC(C)C)C(=O)N[C@@H](Cc1c[nH]cn1)C(=O)N[C@@H](CCC(=O)O)C(=O)N[C@@H](CC(C)C)C(=O)N[C@@H](C)C(=O)N[C@H](C(=O)N[C@@H](Cc1ccc(O)cc1)C(=O)N1CCC[C@H]1C(=O)N[C@@H](CCCNC(=N)N)C(=O)N[C@H](C(=O)N[C@@H](CCC(=O)O)C(=O)N[C@H](C(=O)NCC(=O)N[C@@H](CO)C(=O)NCC(=O)N[C@@H](CO)C(=O)N1CCC[C@H]1C(N)=O)[C@@H](C)O)[C@@H](C)O)[C@@H](C)O
B5: [des1, 16K(C20 diacid-gGlu), 30S, 31G]mimylin (peptide)
peptide: ASELSTAALGRLSAK([γGlu-C20 diacid])LHELATLPRTETGSGSP-NH2
modifications: N-terminus assumed
SMILES: CC(C)C[C@H](NC(=O)[C@H](C)NC(=O)[C@H](C)NC(=O)[C@@H](NC(=O)[C@H](CO)NC(=O)[C@H](CC(C)C)NC(=O)[C@H](CCC(=O)O)NC(=O)[C@H](CO)NC(=O)[C@H](C)N)[C@@H](C)O)C(=O)NCC(=O)N[C@@H](CCCNC(=N)N)C(=O)N[C@@H](CC(C)C)C(=O)N[C@@H](CO)C(=O)N[C@@H](C)C(=O)N[C@@H](CCCCNC(=O)CC[C@H](NC(=O)CCCCCCCCCCCCCCCCCCC(=O)O)C(=O)O)C(=O)N[C@@H](CC(C)C)C(=O)N[C@@H](Cc1c[nH]cn1)C(=O)N[C@@H](CCC(=O)O)C(=O)N[C@@H](CC(C)C)C(=O)N[C@@H](C)C(=O)N[C@H](C(=O)N[C@@H](CC(C)C)C(=O)N1CCC[C@H]1C(=O)N[C@@H](CCCNC(=N)N)C(=O)N[C@H](C(=O)N[C@@H](CCC(=O)O)C(=O)N[C@H](C(=O)NCC(=O)N[C@@H](CO)C(=O)NCC(=O)N[C@@H](CO)C(=O)N1CCC[C@H]1C(N)=O)[C@@H](C)O)[C@@H](C)O)[C@@H](C)O
B6: [N-terminal(C18 diacid-gGlu), des1, 23Y, 30S, 31G]mimylin (peptide)
peptide: {C18 diacid-γGlu}-ASELSTAALGRLSAELHELATYPRTETGSGSP-NH2
SMILES: CC(C)C[C@H](NC(=O)[C@H](C)NC(=O)[C@H](C)NC(=O)[C@@H](NC(=O)[C@H](CO)NC(=O)[C@H](CC(C)C)NC(=O)[C@H](CCC(=O)O)NC(=O)[C@H](CO)NC(=O)[C@H](C)NC(=O)CC[C@H](NC(=O)CCCCCCCCCCCCCCCCC(=O)O)C(=O)O)[C@@H](C)O)C(=O)NCC(=O)N[C@@H](CCCNC(=N)N)C(=O)N[C@@H](CC(C)C)C(=O)N[C@@H](CO)C(=O)N[C@@H](C)C(=O)N[C@@H](CCC(=O)O)C(=O)N[C@@H](CC(C)C)C(=O)N[C@@H](Cc1c[nH]cn1)C(=O)N[C@@H](CCC(=O)O)C(=O)N[C@@H](CC(C)C)C(=O)N[C@@H](C)C(=O)N[C@H](C(=O)N[C@@H](Cc1ccc(O)cc1)C(=O)N1CCC[C@H]1C(=O)N[C@@H](CCCNC(=N)N)C(=O)N[C@H](C(=O)N[C@@H](CCC(=O)O)C(=O)N[C@H](C(=O)NCC(=O)N[C@@H](CO)C(=O)NCC(=O)N[C@@H](CO)C(=O)N1CCC[C@H]1C(N)=O)[C@@H](C)O)[C@@H](C)O)[C@@H](C)O

molecular target: T1, human amylin 3(a) receptor (human …); assay: cell-based or functional assay

hAmylin-R funct. EC50 (pM) | Binder
28 | B1
39 | B2
20 | B3
22 | B4
6 | {C14 diacid}-EASELSTAALGRLSAELHELATLPRTETGPESP-NH2 [[N-terminal(C14 diacid)]mimylin]
10 | {C16 diacid}-ASELSTAALGRLSAELHELATLPRTETGSGSP-NH2 [[N-terminal(C16 diacid), des1, 30S, 31G]mimylin]
27 | {C14 diacid-γGlu-γGlu-AEEA-AEEA-AEEA-AEEA}-EASELSTAALGRLSAELHELATLPRTETGPESP-NH2 [[N-terminal(C14 diacid-2xgGlu-4xOEG)]mimylin]
7 | {C14 diacid}-ASELSTAALGRLSAELHELATLPRTETGSGSP-NH2 [[N-terminal(C14 diacid), des1, 30S, 31G]mimylin]
6 | {C14 diacid-γGlu}-ASELSTAALGRLSAELHELATLPRTETGSGSP-NH2 [[N-terminal(C14 diacid-gGlu), des1, 30S, 31G]mimylin]
22 | B5
10 | B6

molecular target: T2, human calcitonin receptor; assay: cell-based or functional assay

hCTR funct. EC50 (pM) | Binder
19 | B1
34 | B2
22 | B3
23 | B4
2 | {C14 diacid}-EASELSTAALGRLSAELHELATLPRTETGPESP-NH2 [[N-terminal(C14 diacid)]mimylin]
10 | {C16 diacid}-ASELSTAALGRLSAELHELATLPRTETGSGSP-NH2 [[N-terminal(C16 diacid), des1, 30S, 31G]mimylin]
7 | {C14 diacid-γGlu-γGlu-AEEA-AEEA-AEEA-AEEA}-EASELSTAALGRLSAELHELATLPRTETGPESP-NH2 [[N-terminal(C14 diacid-2xgGlu-4xOEG)]mimylin]
5 | {C14 diacid}-ASELSTAALGRLSAELHELATLPRTETGSGSP-NH2 [[N-terminal(C14 diacid), des1, 30S, 31G]mimylin]
4 | {C14 diacid-γGlu}-ASELSTAALGRLSAELHELATLPRTETGSGSP-NH2 [[N-terminal(C14 diacid-gGlu), des1, 30S, 31G]mimylin]
31 | B5
10 | B6
